Data from PMC8427864, “Optimizing operational parameters for the enzymatic production of furandicarboxylic acid building block” (Microbial Cell Factories, 2021).

Assays:
[1] = system: T1, O=Cc1ccc(CO)o1; experiment: AmplexRed/HRP-coupled H2O2 assay, continuous steady state; type: biochemical, Methylovorus sp. MP688; details: 50 mM Tris/HCl, pH 7.0, air oxygen as co-substrate, 8BxHMFO (Methods print G356K)
T1 construct: synthetic gene in pET23b(+), E. coli BL21(DE3)pLysS, purified by two anion-exchange steps; FAD-containing; no tag mentioned

[2] = system: T2, O=Cc1ccc(C=O)o1; experiment: as above; type: biochemical, Methylovorus sp. MP688; details: 50 mM Tris/HCl, pH 7.0, air oxygen as co-substrate
T2 construct: synthetic gene in pET23b(+), E. coli BL21(DE3)pLysS, purified by two anion-exchange steps; FAD-containing; no tag mentioned
Description: (§1) AmplexRed/HRP-coupled H2O2 assay, continuous steady state on HMFO (hydroxymethylfurfural oxidase) WT | The saturation profiles for all the variants discarded any inhibitory effect by these two substrates

[3] = system: T1, O=Cc1ccc(CO)o1; experiment: as above; type: biochemical, Methylovorus sp. MP688; details: 50 mM Tris/HCl, pH 7.0, air oxygen as co-substrate
Description: as §1

[4] = target: T3, HMFO (hydroxymethylfurfural oxidase) WT (Methylovorus sp. MP688, UniProt E4QP00); experiment: UV-visible spectra of folded enzyme and heat-released flavin; type: binding; details: flavin released at 95 °C, 5 min
T3 construct: gene MPQ_0130; synthetic gene in pET23b(+), E. coli BL21(DE3)pLysS, purified by two anion-exchange steps; FAD-containing; no tag mentioned
T3 sequence (E4QP00 1-531): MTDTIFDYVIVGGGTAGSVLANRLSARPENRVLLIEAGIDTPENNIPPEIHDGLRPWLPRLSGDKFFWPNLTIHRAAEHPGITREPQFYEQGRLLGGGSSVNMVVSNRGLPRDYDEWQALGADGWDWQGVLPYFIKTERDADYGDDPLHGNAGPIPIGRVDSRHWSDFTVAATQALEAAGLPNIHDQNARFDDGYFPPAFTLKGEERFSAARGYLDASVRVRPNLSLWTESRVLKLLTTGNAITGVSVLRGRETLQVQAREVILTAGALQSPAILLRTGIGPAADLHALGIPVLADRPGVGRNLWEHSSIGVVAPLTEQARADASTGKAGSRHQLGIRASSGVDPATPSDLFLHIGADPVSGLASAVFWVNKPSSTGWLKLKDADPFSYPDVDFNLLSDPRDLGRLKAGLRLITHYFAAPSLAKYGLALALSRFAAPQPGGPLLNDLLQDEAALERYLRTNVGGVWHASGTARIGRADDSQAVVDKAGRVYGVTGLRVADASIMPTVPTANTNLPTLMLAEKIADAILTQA

Compound | Km [1] [mM] | kcat [1] [s⁻¹] | Km [2] [mM] | kcat [2] [s⁻¹] | Km [3] [mM] | kcat [3] [s⁻¹] | UV-visible spectra of folded enzyme and heat-released flavin [4]
HMFO (hydroxymethylfurfural oxidase) WT (Methylovorus sp. MP688; A419Y/A435E/G356H/H74Y/I73V/T414K/V367R/W466F) | 17.1 ± 1.6 | 0.09 ± 0.0033 |  |  |  |  | 
HMFO (hydroxymethylfurfural oxidase) WT (Methylovorus sp. MP688; V367R) |  |  | 1.1 ± 0.2 | 0.0367 ± 0.0017 | 4.2 ± 0.3 | 0.747 ± 0.0167 | 
Cc1cc2nc3c(=O)[nH]c(=O)nc-3n(C[C@H](O)[C@H](O)[C@H](O)COP(=O)(O)OP(=O)(O)OC[C@H]3O[C@@H](n4cnc5c(N)ncnc54)[C@H](O)[C@@H]3O)c2cc1C [FAD] |  |  |  |  |  |  | The spectra of the folded enzymes and the free flavin, obtained by heat treatment
HMFO (hydroxymethylfurfural oxidase) WT (Methylovorus sp. MP688; V367R/W466F) |  |  | 4.9 ± 0.5 | 0.025 ± 0.00067 | 23.1 ± 2.8 | 0.0567 ± 0.0033 | 
HMFO (hydroxymethylfurfural oxidase) WT (Methylovorus sp. MP688; W466F) |  |  | 1.8 ± 0.3 | 0.005 ± 0.00017 | 6.4 ± 0.5 | 0.0233 ± 0.0005 | 
